From patent US20260224723A1, “ANTI-B7H3 ANTIBODY-DRUG CONJUGATE AND USE THEREOF” (Duality Biologics (Suzhou) Co., Ltd., priority 2022, published 2026)

Key:
[1] = molecular target: Human full-length B7H3 on MCF-7 cells (human) (UniProt Q5ZPR3); assay: cell-based or functional assay
[2] = molecular target: Human full-length B7H3 on MCF-7 cells (human) (UniProt Q5ZPR3); assay: FACS on MCF-7 cells, Alexa 647 anti-human secondary
[3] = molecular target: Cynomolgus monkey full-length B7H3 on transfected FlpinCHO cells (cynomolgus monkey); assay: FACS on cynomolgus monkey B7H3-transfected FlpinCHO cell pool; negative control

Substance: Enoblituzumab (MacroGenics) (antibody)
- Antibody internalization EC50 [1]: 1.95 nM
- Antibody internalization Maximum MFI [1]: 39800 MFI
- EC50 [2]: 2.49 nM
- Maximum MFI [2]: 4640 MFI

Substance: hIgG1 isotype (antibody)
- Antibody internalization Maximum MFI [1]: 21 MFI
- Maximum MFI [3]: 6.67 MFI
